Results published in publication doi:10.1101/833699 (bioRxiv, 2019).

Key:
SEC-MALS = biological target: the molecule itself; assay: SEC-MALS
AUC + SEC-MALS = biological target: the molecule itself; assay: AUC + SEC-MALS

B1: ΔRBD2-CDTb (residues 212-751), CDTb construct that lacks the C-terminal receptor binding domain 2 (domain or fragment)
chain: SDWEDEDLDTDNDNIPDSYERNGYTIKDLIAVKWEDSFAEQGYKKYVSNYLESNTAGDPYTDYEKASGSFDKAIKTEARDPLVAAYPIVGVGMEKLIISTNEHASTDQGKTVSRATTNSKTESNTAGVSVNVGYQNGFTANVTTNYSHTTDNSTAVQDSNGESWNTGLSINKGESAYINANVRYYNTGTAPMYKVTPTTNLVLDGDTLSTIKAQENQIGNNLSPGDTYPKKGLSPLALNTMDQFSSRLIPINYDQLKKLDAGKQIKLETTQVSGNFGTKNSSGQIVTEGNSWSDYISQIDSISASIILDTENESYERRVTAKNLQDPEDKTPELTIGEAIEKAFGATKKDGLLYFNDIPIDESCVELIFDDNTANKIKDSLKTLSDKKIYNVKLERGMNILIKTPTYFTNFDDYNNYPSTWSNVNTTNQDGLQGSANKLNGETKIKIPMSELKPYKRYVFSGYSKDPLTSNSIIVKIKAKEEKTDYLVPEQGYTKFSYEFETTEKDSSNIEITLIGSGTTYLDNLSITELNSTPEILDEP
SEC-MALS
  stoichiometry N: 7

B2: activated CDTb (aCDTb; residues 212-876), cell-binding and pore-forming component of the C. difficile binary toxin (CDT) (domain or fragment)
chain: SDWEDEDLDTDNDNIPDSYERNGYTIKDLIAVKWEDSFAEQGYKKYVSNYLESNTAGDPYTDYEKASGSFDKAIKTEARDPLVAAYPIVGVGMEKLIISTNEHASTDQGKTVSRATTNSKTESNTAGVSVNVGYQNGFTANVTTNYSHTTDNSTAVQDSNGESWNTGLSINKGESAYINANVRYYNTGTAPMYKVTPTTNLVLDGDTLSTIKAQENQIGNNLSPGDTYPKKGLSPLALNTMDQFSSRLIPINYDQLKKLDAGKQIKLETTQVSGNFGTKNSSGQIVTEGNSWSDYISQIDSISASIILDTENESYERRVTAKNLQDPEDKTPELTIGEAIEKAFGATKKDGLLYFNDIPIDESCVELIFDDNTANKIKDSLKTLSDKKIYNVKLERGMNILIKTPTYFTNFDDYNNYPSTWSNVNTTNQDGLQGSANKLNGETKIKIPMSELKPYKRYVFSGYSKDPLTSNSIIVKIKAKEEKTDYLVPEQGYTKFSYEFETTEKDSSNIEITLIGSGTTYLDNLSITELNSTPEILDEPEVKIPTDQEIMDAHKIYFADLNFNPSTGNTYINGMYFAPTQTNKEALDYIQKYRVEATLQYSGFKDIGTKDKEMRNYLGDPNQPKTNYVNLRSYFTGGENIMTYKKLRIYAITPDDRELLVLSVD
AUC + SEC-MALS
  stoichiometry N: 14
